Test results as given in patent US20230130599A1 (BEIJING QL BIOPHARMACEUTICAL, published 2023).

Target: T1, human GFRAL (human, UniProt Q6UXV0 19-394)
T1 sequence (looked up): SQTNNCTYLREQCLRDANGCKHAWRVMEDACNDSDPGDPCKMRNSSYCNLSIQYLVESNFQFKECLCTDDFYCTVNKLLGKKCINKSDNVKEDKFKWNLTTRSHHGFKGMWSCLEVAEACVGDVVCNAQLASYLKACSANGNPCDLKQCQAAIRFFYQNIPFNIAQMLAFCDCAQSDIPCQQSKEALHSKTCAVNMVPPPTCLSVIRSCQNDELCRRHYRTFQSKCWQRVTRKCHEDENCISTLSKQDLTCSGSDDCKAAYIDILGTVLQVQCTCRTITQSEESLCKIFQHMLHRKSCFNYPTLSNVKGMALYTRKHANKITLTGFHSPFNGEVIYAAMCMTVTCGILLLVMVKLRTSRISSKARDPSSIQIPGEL
Experiment: cell-based or functional assay

B1: Native GDF15 (SEQ ID NO: 9) (ligand)
chain: ARNGDHCPLGPGRCCRLHTVRASLEDLGWADWVLSPREVQVTMCIGACPSQFRAANMHAQIKTSLHRLKPDTVPAPCCVPASYNPMVLIQKTDTGVSLQTYDDLLAKDCHCI
Question: For B1, which “1% HSA GDF15 activity (EC50, pM); SRE luciferase reporter” value is on record?
Answer: 8.2 pM

Question: What about the “HSA free GDF15 activity (EC50, pM); SRE luciferase reporter” value of the same binder?
Answer: 10.3 pM
